Measurements from US6440696 (NEW ENGLAND MEDICAL CENTER, dated 2002).

B2: human lamin/GAL4 DNA binding domain fusion protein (pLam 5') (other)
chain: MKLLSSIEQACDICRLKKLKCSKEKPKCAKCLKNNWECRYSPKTKRSPLTRAHLTEVESRLERLEQLFLLIFPREDLDMILKMDSLQDIKALLTGLFVQDNVNKDAVTDRLASVETDMPLTLRQHRISATSSSEESSNKGQRQLTVSSEEVVSREVSGIKAAYEAELGDARKTLDSVAKERARLQLELSKVREEFKELKARNTKKEGDLIAAQARLKDLEALLNSKEAALSTALSEKRTLEGELHDLRGQVAKLEAALGEAKKQLQDEMLRRVDAENRLQTMKEELDFQKNIYSEELRETKRRHETRLVEID
notes: Control bait from Clontech; also called human lamin fused to Gal4 in pGBT9
B3: pGBT9-E6 bait (GAL4 fused to HPV16 E6 residues 2-158) (other)
chain: MKLLSSIEQACDICRLKKLKCSKEKPKCAKCLKNNWECRYSPKTKRSPLTRAHLTEVESRLERLEQLFLLIFPREDLDMILKMDSLQDIKALLTGLFVQDNVNKDAVTDRLASVETDMPLTLRQHRISATSSSEESSNKGQRQLTVSHQKRTAMFQDPQERPRKLPQLCTELQTTIHDIILECVYCKQQLLRREVYDFAFRDLCIVYRDGNPYAVCDKCLKFYSKISEYRHYCYSLYGTTLEQQYNKPLCDLLIRCINCQKPLCPEEKQRHLDKKQRFHNIRGRWTGRCMSCCRSSRTRRETQL
notes: also called pGB9-E6
B5: pGAD10 two-hybrid clone encoding the 378 carboxyl terminal amino acid residues of E6TP1 (other)
chain: SSRHSASPVVFTSARSSPKEELHPAAPSQLAPSFSSSSSSSSGPRSFYPRQGATSKYLIGWKKPEGTINSVGFMDTRKRHQSDGNEIAHTRLRASTRDLRASPKPTSKSTIEEDLKKLIDLESPTPESQKSFKFHALSSPQSPFPSTPTSRRALHRTLSDESIYNSQREHFFTSRASLLDQALPNDVLFSSTYPSLPKSLPLRRPSYTLGMKSLHGEFSASDSSLTDIQETRRQPMPDPGLMPLPDTAADLDWSNLVDAAKAYEVQRASFFAASDENHRPLSAASNSDQLEDQALAQMKPYSSSKDSSPTLASKVDQLEGMLKMLREDLKKEKEDKAHLQAEVQHLREDNLRLQEESQNASDKLKKFTEWVFNTIDMS
notes: also called one distinct strongly positive clone; longer yeast two-hybrid cDNA clone
B6: murine p53/GAL4 DNA binding domain fusion protein (pVA3) (other)
chain: MKLLSSIEQACDICRLKKLKCSKEKPKCAKCLKNNWECRYSPKTKRSPLTRAHLTEVESRLERLEQLFLLIFPREDLDMILKMDSLQDIKALLTGLFVQDNVNKDAVTDRLASVETDMPLTLRQHRISATSSSEESSNKGQRQLTVSPVTETPGPVAPAPATPWPLSSFVPSQKTYQGNYGFHLGFLQSGTAKSVMCTYSPPLNKLFCQLAKTCPVQLWVSATPPAGSRVRAMAIYKKSQHMTEVVRRCPHHERCSDGDGLAPPQHLIRVEGNLYPEYLEDRQTFRHSVVVPYEPPEAGSEYTTIHYKYMCNSSCMGGMNRRPILTIITLEDSSGNLLGRDSFEVRVCACPGRDRRTEEENFRKKEVLCPELPPGSAKRALPTCTSASPPQKKKPLDGEYFTLKIRGRKRFEMFRELNEALELKDAHATEESGDSRAHSSYLKTKKGQSTSRHKKTMVKKVGPDSD
notes: Control bait from Clontech; also called murine p53 fused to Gal4 in pGBT9

Experiments:
GST = target: T1, GST (UniProt P08515 1-218 = GST); test: GST pull-down of in vitro translated 35S-labelled E6
T1 construct: Negative control; also called GST alone

[1] = target: T2, pGAD10 two-hybrid clone encoding the 476 carboxyl-terminal amino acids of E6-AP (human, UniProt Q05086 400-875); test: yeast two-hybrid, control bait
T2 construct: domain: 476 carboxyl-terminal amino acids; also called one weakly positive clone
T2 sequence: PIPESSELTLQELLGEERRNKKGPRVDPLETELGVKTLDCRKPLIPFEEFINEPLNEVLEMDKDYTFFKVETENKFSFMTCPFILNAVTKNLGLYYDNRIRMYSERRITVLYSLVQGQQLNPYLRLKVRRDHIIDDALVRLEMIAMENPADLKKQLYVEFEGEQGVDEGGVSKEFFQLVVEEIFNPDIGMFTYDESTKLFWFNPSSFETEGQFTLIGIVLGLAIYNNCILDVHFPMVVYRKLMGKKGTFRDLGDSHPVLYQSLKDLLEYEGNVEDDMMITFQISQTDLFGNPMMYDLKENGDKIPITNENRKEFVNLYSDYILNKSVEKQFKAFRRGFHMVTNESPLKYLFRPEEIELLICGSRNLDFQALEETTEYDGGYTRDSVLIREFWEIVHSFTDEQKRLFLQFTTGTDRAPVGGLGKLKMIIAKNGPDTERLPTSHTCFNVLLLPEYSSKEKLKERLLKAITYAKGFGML

[2] = target: B5; test: yeast two-hybrid, control bait
[3] = target: B5; test: yeast two-hybrid: growth on Trp-, Leu-, His- medium and beta-gal activity
[4] = target: B6; test: yeast two-hybrid, control bait
[5] = target: B2; test: yeast two-hybrid, control bait
[6] = target: B3; test: yeast two-hybrid: growth on Trp-, Leu-, His- medium and beta-gal activity

T1 sequence (P08515 whole entry): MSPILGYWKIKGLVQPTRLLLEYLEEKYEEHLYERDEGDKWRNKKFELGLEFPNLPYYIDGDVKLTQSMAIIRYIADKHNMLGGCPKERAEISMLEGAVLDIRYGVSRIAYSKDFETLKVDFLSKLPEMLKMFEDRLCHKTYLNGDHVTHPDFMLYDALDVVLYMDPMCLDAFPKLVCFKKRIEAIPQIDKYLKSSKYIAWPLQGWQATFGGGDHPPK

B1: HPV6 E6 protein (other)
chain: MESANASTSATTIDQLCKTFNLSMHTLQINCVFCKNALTTAEIYSYAYKHLKVLFRGGYPYAACACCLEFHGKINQYRHFDYAGYATTVEEETKQDILDVLIRCYLCHKPLCEVEKVKHILTKARFIKLNCTWKGRCLHCWTTCMEDMLP
notes: also called low-risk HPV6 E6
Q: Does B1 bind (GST)?
A: Result: no binding (tested: 1 µg GST fusion protein)

Q: Does B2 bind [1]?
A: Result: no binding

Q: Does B2 bind [2]?
A: Result: no binding

Q: Does B3 bind [3]?
A: Result: binds

B4: HPV16 E6 protein (other)
chain: MFQDPQERPRKLPQLCTELQTTIHDIILECVYCKQQLLRREVYDFAFRDLCIVYRDGNPYAVCDKCLKFYSKISEYRHYCYSLYGTTLEQQYNKPLCDLLIRCINCQKPLCPEEKQRHLDKKQRFHNIRGRWTGRCMSCCRSSRTRRETQL
notes: also called high-risk HPV16 E6; wild-type E6
Q: Does B4 bind (GST)?
A: Result: no binding (tested: 1 µg GST fusion protein)

Q: Does B5 bind [4]?
A: Result: no binding

Q: Does B6 bind [1]?
A: Result: no binding

B7: HPV11 E6 protein (other)
chain: MESKDASTSATSIDQLCKTFNLSLHTLQIQCVFCRNALTTAEIYAYAYKNLKVVWRDNFPFAACACCLELQGKINQYRHFNYAAYAPTVEEETNEDILKVLIRCYLCHKPLCEIEKLKHILGKARFIKLNNQWKGRCLHCWTTCMEDLLP
Q: Does B7 bind (GST)?
A: Result: no binding (tested: 1 µg GST fusion protein)

B8: pGAD10 two-hybrid clone encoding the 194 carboxyl terminal amino acid residues of E6TP1 (other)
chain: NDVLFSSTYPSLPKSLPLRRPSYTLGMKSLHGEFSASDSSLTDIQETRRQPMPDPGLMPLPDTAADLDWSNLVDAAKAYEVQRASFFAASDENHRPLSAASNSDQLEDQALAQMKPYSSSKDSSPTLASKVDQLEGMLKMLREDLKKEKEDKAHLQAEVQHLREDNLRLQEESQNASDKLKKFTEWVFNTIDMS
notes: also called set of eleven identical strongly positive clones
Q: Does B8 bind [4]?
A: Result: no binding

Q: Does B8 bind [5]?
A: Result: no binding

Q: Does B8 bind [6]?
A: Result: binds
